# Measurements reported in article PMC11294680.
# Target: human BKCa channel α-subunit (hSlo1), residues 1-1,114 (human)
# Assay: cryo-EM structure; purified tetrameric channel (5.5 mg/ml, 44 μM) in 20 mM Tris-HCl pH 8.0, 450 mM KCl, 10 mM CaCl2, 10 mM MgCl2, 0.01% glyco-diosgenin, POPE/POPC/POPA, mixed with 1 mM CTIBD on ice for 30 min; C1 and C4 symmetry
substance,measurement,value
"human BKCa channel α-subunit (hSlo1), residues 1-1,114 (natural protein)",stoichiometry N,4
